Patent publication US20240026407A1, “MODIFICATION OF SAPONINS” (GLAXOSMITHKLINE BIOLOGICALS SA, priority 2020, published 2024)

How the values were obtained:
Assay type in all cases: biochemical, Quillaja saponaria
[1] = Experiment 4-1: screening of glucosidases for deglycosylation with purified QS-18 (0.04 mg/ml) at pH 7.5 and room temperature; conditions: pH 7.5, room temperature, 20 h, clarified E. coli lysate, QS-18 2150 to QS-21 1988 by LCMS/MS
Procedure, shortened: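 Deglycosylation measured by LC-MS/MS as % conversion after 20 h room-temperature incubation of QS-18 phenyl fraction (0.04 mg/ml final) with polymyxin B/lysozyme lysates, pH 7.5 phosphate, of E. coli BL21(DE3) expressing each enzyme; MeCN quench. Positives exceeded negative control by >3 S.D.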

[2] = Experiment 4-2: screening of glucosidases for deglycosylation with purified QS-18 (1 mg/ml) at pH 6 and 30 deg C; conditions: pH 6, 30 degC, 18 hrs, clarified lysate, LCMS/MS
Procedure, shortened: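 Enzyme activity derived from LC-MS/MS analysis after MeCN quench. Substrate QS-18 (1 mg/ml final) was exposed overnight (18 h, 30 °C, pH 6 phosphate buffer) to clarified lysates containing candidate glucosidases.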

[3] = Experiment 4-4: screening of glucosidases for deglycosylation of QS-18 in crude bark extract (1 in 20 dilution) to QS-21; conditions: CBE 1 in 20 dilution, pH 6, 25 degC, 18 hours; % conversion of Middle Peak by UV HPLC
Method: Lysates were prepared as in Experiment 4-2.
Crude bark extract (CBE) was adjusted to pH 6 by dropwise addition of 2M NaOH with stirring. 25 uL of clarified lysate was transferred to a reaction plate, 22.5 ul of 100 mM potassium phosphate buffer pH 6 was added, 2.5 ul CBE at pH 6 was added. Reaction plates were sealed, incubated at 25 degC with shaking for 18 hours, then quenched by addition of 50 uL acetonitrile (MeCN). Quenched reaction plates were re-sealed and incubated at 20 degC with shaking for 10 min. The reaction plates were centrifuged (10 min, 4 degC) and analysed by UV HPLC with the method below:
Three key peaks of interest are apparent using this chromatography: Left Peak (retention time approximately 2.30-2.35 min) comprising mainly QS-17 family components; Middle Peak (retention time approximately 2.37-2.42 min) comprising mainly QS-18 family components and desglucosyl-QS-17 family components; and Right Peak (retention time approximately 2.44-2.50 min) comprising mainly QS-21 family components. Peak identity was supported by MS/MS.
Enzyme activity is calculated as the % conversion of the Middle Peak present in the crude bark extract: […]

B1: 9 (protein, listed as Streptomyces rubrolavendulae)
chain: MTADEAVEAALGALDLDTKARLLAGQDMWTLPAVPAVGLASLVMSDGPVGVRGVRWTADDPSVTLPSPTALAACWDPELARRAGRLLAQEARRKGVHVVLAPTVNLHRSPLGGRHFEAYSEDPYLTAETGAACVRGIQDGGVAATVKHFVANDAETDRFTVDNTVPPRALRELYLAPFEAIVRCARPWALMAAYNQVNGVTMTENRHLQTEVLRDAWGFDGVVVSDWFAARSTTGALVGGLDVAMPGPHTVYGDALAAAVRAGDVDEALVDRSVRRVLRLAARVGALEGAEPAVPSPPAHVDGEALAREIAHRSFVLVRNECGALPLDPARSRRVALVGAAARDARVLGGGSAHVFPARTVSPLDGLAAALPEGTELVHARGADLSGEPAPAGPGFALRAVCRDAEGTVLADVPLPSGQIQWIGADLPGGVTHEALHTVEVTGTYTPREGGAHGFGTRGVGAFTLTVGGRVLYDGTREAEPAGDPFEAFAGTPAEHGAADLAEGVPVEVSLRHTVDRDRPAPLPAVVFSLLHRPPRRDPDELIAEAVEAARGADAAVVVVATTERVESEGFDRADLRLPGRQDDLVRAVAAANPRTVVVVNAGAPVEMPWRDDVAAVLLTWFPGQEGGAALADVLLGAEEPGGRLPTTWPAALADAPVTAVTPVDGELRYEEGPFIGYRAWDRAPGGPAPAYPFGHGLGYTTWEYESLVVTPATARVRVRNTGTRPGREVIQLYVAPRADLAERPARWLVGFASVTAGPGARAEAEIRFAPRPFDVWDEEAGAWTAVPGQYEIRAGRSLTDTRLTVTLELD
Expt 4-1 % conv [1]: 9.2% | Expt 4-2 % conv [2]: 0.9% | Expt 4-4 % conv [3]: <3%

B2: 240 (protein, listed as Acidipropionibacterium acidipropionici)
chain: MTELTDLPQYLLIRLLSGADDWRTVAAGEVGVRSLHLSDGPHGLRVPDVKGGSLPATCFPTAVTLGASWDRDLAEEVGGALAVEAGALGVDVVLGPGMNIKRHPLGGRNFEYLSEDPVVSGELAAAMVRGIQGRGVAACVKHFAVNNQETMRLCVDAVVDERTLHEIYLAAFETVVRTARPAAVMASYNEINGTAATTNRSLITEVLRGRWGFDGLVMSDWGAVWDRVAALEAGLDLEMPSSAGAFDRSVAAALDSGRLGLDAVLTSVSRLVGLQNRISPPRIDRIPADEHDALARRAATAGTVLAANDGILPLAAGSKVAVIGAFAARPRYQGSGSSQVNPTRVTGLLEALGAKDVEVGYARGYDPEEQRTDAVLVAEAAELAAASDVAVVVTGPPEELESEGYDRTGMDLPAQHDALVRAVLAANPRTVIVVCSGSPVALPWADRAAAVVLAGLGGQAGGGALADVLVGDAEPGGRLAETWPHDLSEVASDPWFPGTGAMVQYREGSAIGYRHTATNGVEPAFCFGHGLSYTRFDWRDAVLTEPWIVAGDGLSVDVEVANVGDRAGSDVVQVYLSDRTGVVSRPRRWLAGFAKVRLEAGQSRRVQVAVGARELGFWDVEKHDWVVPSGHFDVELGRSAHDIVATLDLVVSEGADHAPERAWTPLIAEDDEAFAARLGHEIPRPAATTPFTARSTLGQVRHTPLGGLLHAAAMRRLAAGVRDPRFRRMMEHTVDELPLRNLPSMTKGLVPLESVSLIVDVLNGAPDEILRRSFGGALGLGRGVVDAGRGLWGELSSRIGRLGR
Expt 4-1 % conv [1]: 9.0% | Expt 4-2 % conv [2]: 0.5% | Expt 4-4 % conv [3]: <3%

B3: 338 (protein, listed as Hungateiclostridium thermocellum)
chain: MAVDIKKIIKQMTLEEKAGLCSGLDFWHTKPVERLGIPSIMMTDGPHGLRKQREDAEIADINNSVPATCFPSAAGLACSWDRELVERVGAALGEECQAENVSILLGPGANIKRSPLCGRNFEYFSEDPYLSSELAASHIKGVQSQGVGACLKHFAANNQEHRRMTVDTIVDERTLREIYFASFENAVKKARPWVVMCAYNKLNGEYCSENRYLLTEVLKNEWMHDGFVVSDWGAVNDRVSGLDAGLDLEMPTSHGITDKKIVEAVKSGKLSENILNRAVERILKVIFMALENKKENAQYDKDAHHRLARQAAAESMVLLKNEDDVLPLKKSGTIALIGAFVKKPRYQGSGSSHITPTRLDDIYEEIKKAGGDKVNLVYSEGYRLENDGIDEELINEAKKAASSSDVAVVFAGLPDEYESEGFDRTHMSIPENQNRLIEAVAEVQSNIVVVLLNGSPVEMPWIDKVKSVLEAYLGGQALGGALADVLFGEVNPSGKLAETFPVKLSHNPSYLNFPGEDDRVEYKEGLFVGYRYYDTKGIEPLFPFGHGLSYTKFEYSDISVDKKDVSDNSIINVSVKVKNVGKMAGKEIVQLYVKDVKSSVRRPEKELKGFEKVFLNPGEEKTVTFTLDKRAFAYYNTQIKDWHVESGEFLILIGRSSRDIVLKESVRVNSTVKIRKRFTVNSAVEDVMSDSSAAAVLGPVLKEITDALQIDMDNAHDMMAANIKNMPLRSLVGYSQGRLSEEMLEELVDKINNVE
Expt 4-1 % conv [1]: 6.3% | Expt 4-2 % conv [2]: 0.5% | Expt 4-4 % conv [3]: <3%

B4: 325 (protein, listed as Ilumatobacter coccineus)
chain: MTGTSTGARRGIICGVIDIDAALNALSLADKCRLVAGETNWRTKAFPEAGIPQLKMSDGPTGIRGEGHGSAGTPGVAVPAGITLGASWDPDLLGEIGDLLGREAVRKRAHVLLGPTVNLHRTPIGGRTFECYSEDPELSGALAASYVRAVQRHDVAVTVKHFVCNDTEIDRMTVDVDVDERPLRELYLRPFERAVKEGGAWGIMTAYNRVAGEFAAQNRRLLTDILRGEWGFDGFAVSDWFGVHEPVGAANAGLTLEMPAPVRVYGDRLLAAIEAGSVTEETVDGLVRDLLGVMNRTKADERNCDEPELSIDDPAERALTRRAAIGGTVLLRNEPIDSSGHPVLPVALDGLASMAVIGPNAVIDRSMGGGSASLTPFDHRTLLDALSDRVGPDTDVRYEPGVRIDRLTPIVRSARLRTPDGADGLRLEYVNGTDWDAPATIDTVTSSSMIRFFGTTPDEIDATAFGARVSGSFVPEIDGPHEIGVVSTGPVTMTARTGDGDPIVVVDDPDMLLPRTREFFGYGSEESVATVECRAGEPVHLEVKWRTSAENGFAALRIGVRPPEPSDLIDRAVAAAAEADVAVVVVGTNDEWETEGFDREVMSLPGRQDELVERVVAANPNTVVVVNAGSPVSMDWAADDHPRPAAAIVTSFFAGQEQAEAMVDVLTGVADPAGRLPITYPQRLADTPAFEHHEPVRSAGRPPQQRYAEGLFIGHRHYEANDVAPRFWLGHGLSYGSVEWSTPTASRTSDTAASLDDSPIVVSLSLTNTSDRDATSVVQCYVAPIAPSVERPVRELKAWAKESLPAQARRDVSIELGSSAFRHWDEESGAWKVEPGEYDIVVATSADPDDEHERLRITIT
Expt 4-1 % conv [1]: 6.3% | Expt 4-2 % conv [2]: 0.9% | Expt 4-4 % conv [3]: <3%

B5: 133 (protein, listed as Aquimixticola soesokkakensis)
chain: MTDSTATPPDPIAAKLTFARGRDYWTTQAAPEIGLRALRFADGPHGLRVQDDENPDHLGLERSAPATCFPPAVTLASSWDAALIEEVGAALGREARAAGVDVVLGPGLNLKRSPLCGRNFEYYSEDPMLSGLLAGASARGIQSVGVGACLKHFAANSQEGDRNRISADIDERSLRELYLRNFQLALEASGAWSIMTSYNRINGLHASQDPWLLTQVLREEWGFDGLVISDWGGVYDPVAALKAGMDLRMPGGALDDRLIAAHARGEIAEGDLDRVIANTTRLAERTRPRDTDVPPDVEAHHALVRRAAAESSVLLKNDGVLPLDPARYPKVAILGELARTPRIQGSGSSRVHPRRVVAPLDVLRERLAQSGAQVAFAPAYGLQNGPADAALITEALQVARDADIVLLFSGLTDAAEAEGSDRTHIDLPDQQLTLLAALADCDTPLVVSLANGAVVRSTQWRDTAQAIVEFWLSGQAHGETVADVLLGDVPPAGRLAQTIPRRLQDTPAFLDFPGEHRHVRHSEGLHIGYRWYDARDLAVDYPFGHGLSYTSFDYEELEIDVRASDDDIAFVARLTLRNSGARAGSEVVQLYASDPSTAYQTPPRELRGWQKVHLEAGESCAVSIPVKRAHLGHWHSGLKRWVFAGGPMTLHVGASSRDLRLTCETELHGEALPVVLTPWSLFGEWMQHPVMGPRIEALFASRGGVKGRAGDLLSDPAGRNTVYINPLAMLAQFPGVPLDQSDLETLCAEAAALA
Expt 4-1 % conv [1]: 3.7% | Expt 4-2 % conv [2]: 0.4% | Expt 4-4 % conv [3]: <3%

B6: 116 (protein, listed as Streptomyces netropsis)
chain: MPDDPVDVLDLDTKARLLSGQDMWSLPAVPRIGLRSIVMSDGPVGVRGVRWTADDPSLALPSPTALAATWDPALARRVGRLLAAEARRKGVHVLLAPTVNLHRSPLGGRHFEAYSEDPYLTARIGTGYVRGVQDGGVAAVVKHFVANDAETERFTVNNKVSARALRELYLAPFEAIVKDARPWGVMAAYNQVNGVTMTEHGHLQNDVLRGEWGFDGIVVSDWLAARDTVRAALGGLDVAMPGPVTVYGPALAAAVRAGDVPESVVDDAVRRVLRLADRVGALGEATRARPSAPDGRALAREVAARSFVLVRNAPVRGAPALPLDPAPGLRVALLGGAARDARILGGGSAQVFPARVVSPLDGLRAALPEGAVTYAVGAEPGDELLPAGAGFTLRAVCRDAAGRMLGEERMPSGMVQWLGDLPAGVGYEALRTVELTGTFTPRESGPHVFGTKGVGAFRLVVGGRTLFDGEQGADHADPFEAFLGSPVERGRVVLAAGTAVEVSLTCVVAEPDGAPIEAVGFCLLHREPERDAEELLAEAVAVAASADAAVVVVATTERVESEGFDRTTLALPGRQDELVARVAAVSPRTVVVVNSGSPVELPWRDDVAAVLLGWFPGQEAGGALADVLLGGCEPGGRLPTTWPVRLADAPVTRVAPVGGELAYAEGLFIGYRAWEKARATPAYAFGHGLGYTDWSYETLDMGGTGTARVRVRNTGSRPGREVVQVYLAVPPGDRAGRPVRRLAGFASVEAGPGETVEAVVALDPRAFEVWDDEAAGWRRIPGTYTAEAGRSIADRRLTAPVEVA
Expt 4-1 % conv [1]: 4.7% | Expt 4-2 % conv [2]: 0.5% | Expt 4-4 % conv [3]: <3%
